The DeepSol protein solubility set

assay: soluble on expression in E. coli; label from the status in PepcDB or PDB records

Sequence | soluble on expression in E. coli
MVMNRSSPHGGGVAAGDGGGRPLRPGHFPLRPLRGHLPPGGRIFALALAVALPVQAETLASRAPETVAITLYRDGDGPFQAMSPWVRQQARDKGLVLVTETRTVDLPAGRHTLRFDGVAEGLIPQSAAVEGLPGKAVERNYDYALLSPGTLVERSLGQPIKVVRTNRKTGRQQTVDATLIQGPYGLMVRTAEGVEALGCSGGAERLVLGAVPEGLTDKPSLSTIVEVPAPTRAKLTVSYLALGVNWQADYVARIHPDGQRLDLTGWLTLVNSGGSQFADAKTQAVAGKLSRKPVRVDKGEARSIHRACWPMDTTHYGQEPPPPPAPPPPLPIPMMSAAPMARAGAEEIAVTGARAKLAEQSNLGDYKLYTLPEPVTLNARQTKQVAFLDQKDVAFQRLYAVEMDSYDDYDNADWPLIIPDVVLRLENKTANGLGKPLPSGALSAIETAGGRPTFAGEQAVRDVAVGEPLDLVIGRAMDVHARPRLVEERTLSKGRVRRTYELDLANAKTVPITVEIRHDPTAPYFKLVSEPQKHDIRQGQVAWRVTLPAGERRSFRYAVAFGR | not soluble
MHHHHHHSSGVDLGTENLYFQSMEKTELIQKAKLAEQAERYDDMATCMKAVTEQGAELSNEERNLLSVAYKNVVGGRRSAWRVISSIEQKTDTSDKKLQLIKDYREKVESELRSICTTVLELLDKYLIANATNPESKVFYLKMKGDYFRYLAEVACGDDRKQTIDNSQGAYQEAFDISKKEMQPTHPIRLGLALNFSVFYYEILNNPELACTLAKTAFDEAIAELDTLNEDSYKDSTLIMQLLRDNLTLWTSDSAG | soluble
MKHYLAIDIGGTAIKYGLISETGDLLEKEEMATEAYKGGPSILEKVKGLVKTYQDQMDLAGVAISSAGMVNPDEGEIFYAGPQIPNYAGTQFKKEIEETFGLPCEVENDVNCAGLAEAISGSAKDYPVALCLTIGTGIGGCLLFNSQVFHGSSHSACEVGYLHLSDGQFQDLASTTALVQEVVLAYGDDISQWDGRRIFEQAKAGDAICIAAISKQVDYLGQGIANICYVVNPNVVVLGGGIMAQKDYLADKLKTALDSYLVSSLAKKTQLKFASHGNNAGILGAYYHFKQKNERSCSFITLEKIENNLASS | not soluble
KKVIIIINPTSGGEAALDYKESLESKAKEYFDHVETKITQRAKDATHFAQNASEEKYDAVIVFGGDGTVNEVISGISEKNHIPKLGIIPGRTGNLITKLLEIN | not soluble
MFQIQETIVSPDLFDKYFVCDYATCQGICCVEGESGAPLEAGEADLLRKYLDAVRDMLSSEALEVIDKQGVSYLDVEGDEVTSIVNGRDCVFTTYDEKGNCLCAFERAYRLGKIDFPKPLSCHLYPVRLTRYSSFTAVNYHRWEICRCAEALGRQMGTPLYRFLKEPLIRAFGKEWYKEMEEIAALLEQNPLKR | not soluble
MSLQQQPPGTPKSTHGAWSVICDKPAGASEEQCALMQNVIADDRPEVGLSVVILKTADRKSRILRILAPLGVLLKDGMELYIDNNNIGRAYFTRCFSEGCYVEVDIDDELLKVLRAGKNAVFALRESVDQDRVGIPIELSGFAEGYDALPEGHHHHHH | not soluble
MAHHHHHHMMSLAIEAVKDFLVKLQDDICEALEAEDGQATFMEDKWTREGGGGGRTRVMVNGAVIEKGGVNFSHVYGKGLPGSSTERHPDMTGCNFQAMGVSLVIHPKNPHVPTSHANVRLFVAEREGKEPVWWFGGGFDLTPYYAVEEDCRYFHQVAQDLCKPFGADVYTRFKVWCDEYFFIPYRNEARGIGGLFFDDLNEWPFEKCFEFVQAVGKGYIDAYIPIVNRRKNTPYTEQQVEFQEFRRGRYAEFNLVIDRGTKFGLQSGGRTESILISLPPRARWGYDWQPEPGTPEARLTEYFLMKRQWV | soluble
MGSDKIHHHHHHTYDYFEDETNYQVFVPEVLNKTVSDCRVLVYNDAGTLVGARYATSPWDKDPRMEAGLFSFRLTPGEYKVYCYTNTDSLTFVDGQHLDASAFILKSSSTGPNRYVQPSDILFQKFVPAIVHPGILQTDTAALERYTGRITVRFKKFPGDVSHIKKVQLLAEGAPVMQYLKNDTLTGRLTPEDKMFHFGTLPVQEKADVLEVDHRFIPSVENEPMRLNYTFLDENGAVVNHLPVEVTERETGLPLRLLHGKRIIIEIESYTVIKISVVGWNEDIESGDTDME | not soluble
GSPGISGGGGGIPVIDGPTQILVRDVSDTVAFVEWTPPRAKVDFILLKYGLVGGEGGKTTFRLQPPLSQYSVQALRPGSRYEVSISAVRGTNESDASSTQFTTEIDAPKNLRVGSRTATSLDLEWDNSEAEAQEYKVVYSTLAGEQYHEVLVPKGIGPTTKTTLTDLVPGTEYGVGISAVMNSKQSIPATMNARTELDSPRDLMVTASSETSISLIWTKASGPIDHYRITFTPSSGISSEVTVPRDRTSYTLTDLEPGAEYIISITAERGRQQSLESTVDAFT | soluble
MAHHHHHHMEALETLRSIAPVSSTEEIQAMIKSAKNAREVRMVLERIVYTHHLCFDLLNGHGYRVAVLQTLTAVAPHASCMHEWFDCVARFRRLGFVLTRTYAAEGFTTIRQWLSHEFFHRGRSPSLVTEGTAHIKELMQWCLEDRLVFDHVLYTRIVFLLTMIVSYLDRQNLYRASFPEDFAKRDGIVVEWIVTNERCVDFDECVLQCDAVMEELLEQMRQDIPSRPPFSFMYRLADYYFATDNVEKMIAVMEDAESYGVSVAESTTAKLMQMACAFNSPQVPELLLRWRVLPPQCVLATPDMSRLLFFYSRSGGGLPCPHCGEAYNHRNVSVYCWLQTPPHQRQCPALRKARVQKGELEESRELPQNADWSAQAFGLFELSRARAIEWTAVEWRGFLLCCIFSPRAMEAKALMDQYLDVTEMDDFLRAACIRLLRHHAPAEAWPTLKKWKQQQCNMSPIALQEALMAASMVADAATRLEHMKAVWQLLLEKDSYVMPLTRRFYQRRMEELATSYAAAAASGDGKESQGGLATEREEAQLMQRVVEMQPRHVSLLDMKDSAADFVVGTRRKNVYRPR | not soluble
MTQAADILIAGGGLNGPALALALARNGFSVTVVDGRPAPQRAEPGFDGRAYALALASKRLLAALGLWDGLASQAQPILRVVTADGTTAGGPSPFVLAFDHAEIEEGPMGYLLEDRFLYAAFLAALEAEPRIRLVSGTTVEAQEVGPQGVTVTLSTGAQLSGRLLVGCDGRQSGTARRAGIRRSGWGYGQTALVTAIEHERPHEGTAWQYFLPGGPLAILPLPGGHRSSIVWSESDAAAAGIQRLPDADYLGALRPRFGDFLGSIRLAGDRFTYPLSLSLAHSFVAPRVALVGDAAHGVHPIAGQGLNLGLRDVAALAEVLTLAARRGEDVGSPLVLDRYQQWRRFDATALALGMDMVNRLFSNDNPVMRAGRDLSMGIVNALPGLRRGFIRQAAGLSGDLPRLLQGRPILEHHHHHH | not soluble
TGFNYFQYNITNSLNASYGPSQEGNQTDFYAGAVQLQQTVVQLDVDRGLEVGLASPLNVAAGALFRADNYQLKAGEEASWAGFENPPWGINQNGGTPAPGAQVFPGFRPEQEVDETRTNIGTYVDLQADLIDPLQVNIAGRFENYSDFGSTVNGKVALRFEPVSQLAFRGTAQTGYRAPNQAQKFFSKVSTTFIDNQPVQTGIFRINSDVGNALGIPDLE | not soluble
GSHMSNAKTKLGITKYSIVTNSNDSVTLRLMTEHDLAMLYEWLNRSHIVEWWGGEEARPTLADVQEQYLPSVLAQESVTPYIAMLNGEPIGYAQSYVALGSGDGWWEEETDPGVRGIDQLLANASQLGKGLGTKLVRALVELLFNDPEVTKIQTDPSPSNLRAIRCYEKAGFERQGTVTTPDGPAVYMVQTRQAFERTRSDA | soluble
MAPYKKSKQKQQKIQKERLRQQQKLDLAEGSVNIPDQDRSRSQDFSMNSTNSSALQDPLQQQPRPVETEKQQKARKERLRYQMKQLGTPCEPVTFSEEITKQLDELYESDDLPDMGLKSVWKRRLGIPMKKLNDWLKQKAFEKCHVSAQTGSCESSKSNSPSESTKSMGSAVLSSSTEPRTPEESHCAPEKSPESTENASPLSSSAEPETPEETSTSMVQIPENFKNKRLSQDLVDKLQELFQINEMPGREISEQWAQQLGISLKTLNNWMQKKRSQKLHPEQAKLKSQRWQETRRLRRAGLNQEKVEKALPYLEAAFKRCQFATQQTMAELKLNTSLQKSQIRLWFSRRRKAPDATHVPAIESDSDDLVELRALFNATEEDDDSDIEILRDTRQEQEEYRNRPEVRAMIERMFGVGGGGGSLDSGIPLQ | not soluble
MTGQPSTPVRPGSVVRTVRRHRGGRSATVQDMVAAEMPVAFNYNGVPFAVMMATPEDLEDFALGFSLSEGIVDHPQDLRVVAVDTFLEGASLQIEIPPERAAALDQRRRNLDGRSGCGVCGNESIEAVLRVPPVLQSALRIDVDALARALDALHARQPIAAQTGAVHAAGWADAQGMVQLVREDVGRHNALDKLIGALARARVDATQGFAVVTSRASYEMAMKAAQARIPLLAAISAPTALAISLADSAGLTLIGFARDHDCVVYSHPQRLDLGVAVGEPALEHHHHHH | not soluble
MGSDKIHHHHHHMKKSLIELLEARQKATDELAEVKLKKATIEAKMKSSTIEDDDLEQLKTDAESLVSQATAIKETIAGLDSDIEETEEELSKAAKIIKEKQKGNTPMDYLKTKAAALDFVRILMDNEGSANSARKAWEANLVEKGVTNLTKILPEPVLIAIQDAFTNYNGILNHVSKDPRYAVRVALQTQVSQAKGHKAGKTKKDEDFTFLDFTINSATVYIKYAFEYSDLKKDTTGAYFNYVMKELAQGFIRTIERAVVIGDGKSNSAEDKITEIKSIAEETEANLFETQEINVAGVFDNAVLETLVAGIDKMVPNTTPILVTSKAIARKLKLVKDAEGRYIDPQPFAPIATNGNVIAGFQVYIYDWMDGATNPIIAFADQAYKMIGDEAAADRFDDYDVTVNRRHIELASVMGGRLAQYKSAVKFTNPAG | not soluble
MKQLSSFDIKACVRELKELEGGKVEKVYHHPPDEIRIRIYAGRKVDLVIEAGRRIHLTKFPKQAPRFPSAFAMLLRKHLEGARIKKIEQYDFDRVVVIEFERFGEIRRIVAELFSKGNVVLLNEENRVIMPLKHTIKVGELYRFPEQRERKDEDREVVRVLAMSGLGGLYAEEVCLRAGIDKKKKYAELSEDERKKIDEEIERLMNFTPKPQIILKDGDYLDVVPMDLLYYSNYEKKYFESFNDALDDYFSKKLAEMDELESMKSEELEKLKKRLEIQKESLRKFEDEAESFRKIGDAIYENYQMVEKIIEAFRAARERKSWDEIKEIVARDEKLKKLVKAIKPEKNAIVVKVGDFDVELEIKKSIHENADLYYEKAKKAREKAEGVKRAIEATLREMERVEEKLEKKLVTSIKVRRKKEWYE | not soluble
MLQVRVKPGVEDRIRGFFPWVYRSEIASFSRKPKKGEIVVVRDVNGKFLGYGYINPEVNIAIRILSFDKNEPVTPELIRKRIKQAYEYRKRLYINSNAYRLVHSEGDLLPGLIVDVYGSYLAVEFTTYGMNQFREVILDTLVELLRPKGIYEKVNEIAKRVEGLDVEERVIYGEVPEEVIIWEHDLKYYINIPQGQKTGFFLDQRNARKFVRNLVEPGDRCLDVFCHTGGFALNMKRAGAGEVIGVDISELALKEAEKNARLNGFTDIKWVKANAFDYLRELDKKGEKFDVIIIDPPSFAKNRAAVPNALRGYKELCVRGLKIAKSGGYLAIFSCSFHITEQHLLDVLLQASYDVRRQVRVIAKTFQDLDHPWILQMPNTLYLKGVWVEVV | soluble
MSLSMDTVNYRPSAYPAISLIEADYRQFAFERHYHLDIHIGLITQGVQRFYHQGAWHQVGQGGVVLMSPDELHDGHAHSNTGYQVQVFSIEPEWLQQTLEANQIEQVIGFEQLIVQDPTLFHSLQQLHHLLRQDNLSQLAKDCLPYQGFAPLLERYSYLKQPTVKPLGQHNLALLKEWVLSQLDQPIRLEQLAQLCQLSPTQFQRHFKAQTGLTPYAWLRRLRLEQAMKLLQSGKPGTDVAYQVGFYDQAHFSKAFKATYGLSPSLITRFSEGHHHHHH | not soluble
